Results: patent publication US20230076643A1

Target: T1, CD6 (UniProt P30203)
T1 sequence (looked up): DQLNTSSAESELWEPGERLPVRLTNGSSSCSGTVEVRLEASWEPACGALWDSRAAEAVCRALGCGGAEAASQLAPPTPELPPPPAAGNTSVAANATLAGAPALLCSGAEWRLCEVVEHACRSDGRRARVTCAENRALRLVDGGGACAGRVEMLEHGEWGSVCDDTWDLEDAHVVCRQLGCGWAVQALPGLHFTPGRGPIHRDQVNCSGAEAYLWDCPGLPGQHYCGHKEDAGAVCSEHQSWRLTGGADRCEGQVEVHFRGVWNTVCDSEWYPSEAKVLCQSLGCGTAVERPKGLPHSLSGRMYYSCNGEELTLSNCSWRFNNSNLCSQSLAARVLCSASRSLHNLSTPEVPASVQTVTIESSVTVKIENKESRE
Test: binding assay of FIG. 7 on CAR Tregs; method not described

B1: CD6 CAR (representative CD6 CAR, expressed on Treg) (protein, part only; not given: hinge, transmembrane and signalling domains, part only)
scFv, part: EVQLVESGGGLVKPGGSLKLSCAASGFKFSRYAMSWVRQAPGKRLEWVATISSGGSYIYYPDSVKGRFTISRDNVKNTLYLQMSSLRSEDTAMYYCARRDYDLDYFDSWGQGTLVTVSSGSTSGGGSGGGSGGGGSSDIQMTQSPSSLSASVGDRVTITCKASRDIRSYLTWYQQKPGKAPKTLIYYATSLADGVPSRFSGSGSGQDYSLTISSLESDDTATYYCLQHGESPFTFGSGTKLEIKRA
- Kd: 50 nM
